Where two headings read alike, the source gives them in different places.
Key:
rhNav1.7α+β1-β2-β3 = molecular target: T1, rhNav1.7α+β1-β2-β3 (rhesus monkey α subunit with human β …); assay: binding FACS, CHO FlpIn cells
T1 construct: P2A cleaves it into α, β1, β2, β3; also called rhNav1.7-beta1-beta2-beta3

[1] = molecular target: T2, huNav1.7α(F276V) + β1-β2-β3 (human, UniProt Q15858 1-1988; A5A6L6 19-218; O60939 30-215; Q2KI11 23-215); assay: binding FACS, CHO FlpIn cells
T2 construct: polyprotein as encoded, P2A sites liberate the subunits; the entry already carries F276V; also called huNav1.7(F276V)-beta1-beta2-beta3
Method: (§1) Binding of the ISVDs to cell-expressed Nav1.7α was detected via murine anti-Flag (Sigma, catalog #F1804). Briefly, cells were resuspended in FACS buffer (PBS, 10% FBS, NaN₃) and transferred to a 96-well V-bottom plate at 1×10^5 cells/well. Purified FLAG3-tagged ISVD was diluted in FACS buffer and added to the cells for 30 minutes at 4° C. […] Prior to the read-out, the samples were resuspended in 1 μg/mL propidium iodide (Sigma, catalog #P4170) to exclude dead cells. Between each step, the cells were centrifuged for 5 minutes at 200 grams and washed with 100 μL/well FACS buffer.
(§2) Based on the huNav1.7α model (as described above) the following huNav1.7α-rhNav1.7α polymorphisms can be allocated to the extracellular part of DI: N146S, F276V, R277Q, E281V and V331M. The first of the residues is in DI S1-S2 whereas the latter four residues belong to DI S5-S6. FACS binding studies (as described above) were performed to stable CHO FlpIn cell lines expressing different variants of huNav1.7+β1−β2−β3 each including one of the four possible extracellular huNav1.7α-rhNav1.7α polymorphisms in the DI S5-S6 region: F276V, R277Q, E281V and V331M (Table 23 and FIGS. 22A-22F). Individual polymorphisms were each sufficient to abolish the binding of F0103265B04, F0103362B08, F010301080, and F0103262B06 to huNav1.7α, recapitulating the absence of binding on rhNav1.7α. F0103262CO2, F0103275B05 and F0103387G05 are more subtly affected in terms of EC50 or Bmax by some of the polymorphisms. None of the individual DI S5-S6 polymorphisms by themselves appear to have an impact on the binding of the two rhNav1.7α cross-reactive ISVDs F0103387G04 and F0103464B09. In addition, no effect on binding of the two ISVDs was observed (data not shown) for the three extracellular DIV VSD huNav1.7α-rhNav1.7α polymorphisms Q1530P, H1531Y and E1534D (FIG. 22G).

[2] = molecular target: T3, huNav1.7α(E281V) + β1-β2-β3 (human); assay: binding FACS, CHO FlpIn cells
T3 construct: polyprotein as encoded; the entry already carries E281V; also called huNav1.7(E281V)-beta1-beta2-beta3
Method: as §1, §2

huNav1.7α + β1-β2-β3 [3] = molecular target: T4, huNav1.7α + β1-β2-β3 (human, UniProt Q15858 1-1988; A5A6L6 19-218; O60939 30-215; Q2KI11 23-215); assay: binding FACS, CHO FlpIn cells
T4 construct: Cell line (CHO FlpIn, HEK FlpIn, transient HEK293T) is named under assay; also called huNav1.7-beta1-beta2-beta3; human Nav1.7α with Navβ1, Navβ2 and Navβ3
Method: as §1, §2

[4] = molecular target: T5, huNav1.7α(V331M) + β1-β2-β3 (human); assay: binding FACS, CHO FlpIn cells
T5 construct: polyprotein as encoded; the entry already carries V331M; also called huNav1.7(V331M)-beta1-beta2-beta3
Method: as §1, §2

[5] = molecular target: T6, huNav1.7α(R277Q) + β1-β2-β3 (human); assay: binding FACS, CHO FlpIn cells
T6 construct: polyprotein as encoded; the entry already carries R277Q; also called huNav1.7(R277Q)-beta1-beta2-beta3
Method: as §1, §2

rhNav1.7α + β1-β2-β3 = molecular target: T7, rhNav1.7α + β1-β2-β3 (rhesus monkey); assay: binding FACS, CHO FlpIn cells
T7 construct: also called rhNav1.7-beta1-beta2-beta3; rhesus Nav1.7α
Method: as §1, §2

huNav1.7α (HEKa) = molecular target: T8, huNav1.7α (HEKa) (human, UniProt Q15858 1-1988); assay: binding FACS, HEKa cells
T8 construct: also called HEKa huNav1.7α
Summary of the method: (§3)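 Flow cytometry read-out of anti-Flag signal on propidium iodide-negative cells measured ISVD binding. Purified FLAG3-tagged ISVD, diluted in PBS with 10% FBS and NaN₃, was applied to the cells for 30 minutes at 4° C.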

huNav1.7α + β1 (HEKa/β1) = molecular target: T9, huNav1.7α + β1 (HEKa/β1) (human, UniProt Q15858 1-1988; Q07699 19-218); assay: binding FACS, HEKa/β1 cells
T9 construct: also called HEKa/β1 huNav1.7α
Summary of the method: as §3

huNav1.7α + β1-β2-β3 [6] = molecular target: T4, huNav1.7α + β1-β2-β3; assay: competition FACS, HEK FlpIn cells, vs EC30 of CMYC3-F0103265B04
Method: Competition FACS assays were performed with CMYC3-tagged ISVD F0103265B04 or F0103275B05(N93R) affinity maturation variant on a HEK FlpIn huNav1.7α+β1−β2−β3 transgenic cell line. Briefly, cells were resuspended in FACS buffer (PBS, 2% FBS, 0.05% NaN₃) and 1×10⁵ cells/well were transferred to 96-well V-bottom plates. Cells were subsequently resuspended in a 100 μL mixture of purified ISVD (dilution series) and CMYC3-tagged ISVD F0103265B04 (at a concentration equivalent to EC30) followed by incubation for 1.5 hours at 4° C. […] Between each step, the cells were centrifuged for 5 minutes at 200 g and washed with 100 μL/well FACS buffer. Prior to the read-out, the samples were resuspended in 5 nM TOPRO3 (Molecular probes, catalog #T3605) to exclude dead cells. F0103262CO2, F0103262B06, F0103265A11, F0103265B04, F0103275B05, F0103362B08, and F0103387G04 all compete with F0103265B04 for binding to huNav1.7α, in contrast to an irrelevant control ISVD (IRR) (see Table 21 and FIG. 15A, FIG. 15B, FIG. 15C, and FIG. 15D).

huNav1.7α + β1-β2-β3 [7] = molecular target: T4, huNav1.7α + β1-β2-β3; assay: binding FACS, CHO FlpIn cells; remark: listed apart in the source
Summary of the method: as §3

[8] = molecular target: huNav1.7α + β1 on HEK cells (human, UniProt Q15858 1-1988; Q07699 19-218); assay: binding FACS, HEK cells (HEKa/b1)
[9] = molecular target: T10, huNav1.7α on HEK cells (without β subunits) (human, UniProt Q15858 1-1988); assay: binding FACS, HEK cells (HEKa)
T10 construct: also called HEKa huNav1.7α

[10] = molecular target: T11, huNav157 chimera 14 + β1-β2-β3 on cells (human (huNav1.7α/huNav1.5α chimera)); assay: binding FACS, HEK FlpIn cells
T11 construct: Extracellular loops and transmembrane helices of Nav1.7α, intracellular loops of Nav1.5α; P2A linkers are cleaved co-translationally; also called HEK FlpIn Nav157ch14-β1-β2-β3; huNav157 chimera 14-beta1-beta2-beta3

[11] = molecular target: T12, huNav157 chimera 14 on cells (without β subunits) (human (huNav1.7α/huNav1.5α chimera)); assay: binding FACS, HEK FlpIn cells
T12 construct: also called HEK FlpIn Nav157ch14

[12] = molecular target: T13, huNav1.7α + β1-β2-β3 (human Nav1.7α co-expressed with human Navβ1, Navβ2 and Navβ3 on cells) (human); assay: binding FACS, CHO FlpIn cells
T13 construct: also called huNav1.7-beta1-beta2-beta3; CHO FlpIn huNav1.7α + β1-β2-β3
Summary of the method: as §3

binding result (rhNav1.7α+β1-β2-β3)	EC50 [8] [nM]	EC50 [9] [nM]	Binder	EC50 [10] [nM]	EC50 [11] [nM]	other results
no binding	–	–	F010302368 (VHH, F010302365 background plus R39Q, A63V) VHH: EVQLVESGGGVVQPGGSLRLSCAASSRAFIRDVFTGWYRQAPGKQRELVARIYNGGNTNYADSVKGRFTISRDNAKKTVYLQMNSLRPEDTALYYCLFSGTISTGREYRSGDYWGQGTLVTVSS	–	–	–
no binding	–	–	F010302357 (VHH, F010302365 background plus A28Q, R39Q, G54E, A63V) VHH: EVQLVESGGGVVQPGGSLRLSCAASSRQFIRDVFTGWYRQAPGKQRELVARIYNEGNTNYADSVKGRFTISRDNAKKTVYLQMNSLRPEDTALYYCLFSGTISTGREYRSGDYWGQGTLVTVSS	–	–	–
no binding	–	–	F010302341 (VHH, F010302365 background plus A28Q, R39Q, G54E) VHH: EVQLVESGGGVVQPGGSLRLSCAASSRQFIRDVFTGWYRQAPGKQRELVARIYNEGNTNYADSAKGRFTISRDNAKKTVYLQMNSLRPEDTALYYCLFSGTISTGREYRSGDYWGQGTLVTVSS	–	–	–
no binding	–	–	F010302333 (VHH, F010302365 background plus A28Q, G54E) VHH: EVQLVESGGGVVQPGGSLRLSCAASSRQFIRDVFTGWYRRAPGKQRELVARIYNEGNTNYADSAKGRFTISRDNAKKTVYLQMNSLRPEDTALYYCLFSGTISTGREYRSGDYWGQGTLVTVSS	–	–	–
–	–	–	F010301080 (VHH) VHH: EVQLVESGGGLVQPGGSLRLSCAASGMLFNANTQGWYRQAPGKQRELVAFIFWGGYVTYNDSVKGRFTISRDNAKRTMYLQMNSLKPEDSAIYYCSLSRYLGQGTLVTVSS	–	–	EC50 [1]: 2.6 nM; EC50 [2]: 2.5 nM; EC50 (huNav1.7α + β1-β2-β3 [3]): 3.4 nM; binding result [4]: no binding; EC50 [5]: 3.2 nM; binding result (rhNav1.7α + β1-β2-β3): no binding
–	–	–	F0103362B08 (VHH, entry includes the FLAG-HIS6 tag; also called F0103362B08 (parental)-FLAG-HIS6) VHH: EVQLVESGGGLVQAGGSLRLSCAASVRPFSTSAMGWFRQAPEKEREAVAGILWNGIVTYYADSVKGRFTISRDNAKNEVYLQMNKLKPEDTAVYYCALDRDYGGRSFSAYEYEYWGQGTLVTVSS	–	–	EC50 (huNav1.7α (HEKa)): 19 nM; EC50 [1]: 42 nM; EC50 [2]: 34 nM; EC50 (huNav1.7α + β1-β2-β3 [3]): 43 nM; binding result [4]: no binding; EC50 [5]: 34 nM; binding result (rhNav1.7α + β1-β2-β3): no binding; EC50 (huNav1.7α + β1 (HEKa/β1)): 34 nM; IC50 (huNav1.7α + β1-β2-β3 [6]): 150 nM; EC50 (huNav1.7α + β1-β2-β3 [7]): 110 nM
–	39	14	F0103275B05 (VHH, also called F0103275B05 (parental)-FLAG-HIS6) VHH: EVQLVESGGGLVQPGGSLRLSCAASGSIFNINSMAWYRRAPGKQRELVASSTNGGSTNYADSVKGRFTISRDNAKRVYLQMNSLTPEDTAVYYCNALLQPSIYDISRTYWGQGTLVTVSS	33	12	EC50 [12]: 66 nM
–	32	23	F010301638 (VHH, also called F0103275B05(L11V, R39Q, R76N, T83R, V89L)) VHH: EVQLVESGGGVVQPGGSLRLSCAASGSIFNINSMAWYRQAPGKQRELVASSTNGGSTNYADSVKGRFTISRDNAKNVYLQMNSLRPEDTALYYCNALLQPSIYDISRTYWGQGTLVTVSS	50	18	–
–	31	19	F010301635 (VHH, also called F0103275B05(L11V, R39Q, T83R, V89L)) VHH: EVQLVESGGGVVQPGGSLRLSCAASGSIFNINSMAWYRQAPGKQRELVASSTNGGSTNYADSVKGRFTISRDNAKRVYLQMNSLRPEDTALYYCNALLQPSIYDISRTYWGQGTLVTVSS	35	16	–
–	30	13	F010301637 (VHH, also called F0103275B05(L11V, T83R, V89L)) VHH: EVQLVESGGGVVQPGGSLRLSCAASGSIFNINSMAWYRRAPGKQRELVASSTNGGSTNYADSVKGRFTISRDNAKRVYLQMNSLRPEDTALYYCNALLQPSIYDISRTYWGQGTLVTVSS	29	11	EC50 [12]: 56 nM
–	30	17	F010301636 (VHH, also called F0103275B05(L11V, R76N, T83R, V89L)) VHH: EVQLVESGGGVVQPGGSLRLSCAASGSIFNINSMAWYRRAPGKQRELVASSTNGGSTNYADSVKGRFTISRDNAKNVYLQMNSLRPEDTALYYCNALLQPSIYDISRTYWGQGTLVTVSS	45	14	–
–	230	380	F010301641 (VHH, also called F0103275B05(R76_V78insT)(L11V, R76N, T83R, V89L)) VHH: EVQLVESGGGVVQPGGSLRLSCAASGSIFNINSMAWYRRAPGKQRELVASSTNGGSTNYADSVKGRFTISRDNAKNTVYLQMNSLRPEDTALYYCNALLQPSIYDISRTYWGQGTLVTVSS	350	310	–

Source: US20240002497A1 (Merck Sharp & Dohme, published 2024)
